The values below come from PMC9597168, “ATP-dependent polymerization dynamics of bacterial actin proteins involved in Spiroplasma swimming” (Open Biology, 2022).

Substitutions are numbered along the chain they refer to. Numbers in names are those of the source.

One series has as its target T1, SpeMreB5 (Spiroplasma eriocheiris, UniProt A0A0H3XIQ3).
T1 construct: gene mreB5; full length, 6xHis fusion, E. coli expressed, purified as monomer
T1 sequence (A0A0H3XIQ3 1-350): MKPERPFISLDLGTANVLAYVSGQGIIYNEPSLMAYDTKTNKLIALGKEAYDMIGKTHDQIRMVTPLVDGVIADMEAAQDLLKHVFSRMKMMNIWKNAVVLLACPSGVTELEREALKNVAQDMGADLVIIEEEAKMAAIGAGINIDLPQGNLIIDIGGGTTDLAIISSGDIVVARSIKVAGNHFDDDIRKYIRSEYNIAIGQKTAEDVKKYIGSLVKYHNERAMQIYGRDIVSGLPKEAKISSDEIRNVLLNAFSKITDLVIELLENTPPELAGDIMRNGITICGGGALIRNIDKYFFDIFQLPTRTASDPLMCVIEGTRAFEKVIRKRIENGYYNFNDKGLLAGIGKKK
Briefly: Pi release assay (MESG coupled, A360). The series is classed as biochemical. The conditions noted are these: 2 mM ATP, 2 mM MgCl2, pH 7.5, 100 mM KCl, about 25 °C.

The target in series [1] is SpeMreB5 D162S (Spiroplasma eriocheiris). Briefly: sedimentation assay (ultracentrifugation of polymers, SDS-PAGE of pellet and supernatant); buffer S (20 mM Tris-HCl pH 8.0, 1 M NaCl, 200 mM L-arginine-HCl pH 8.0, 5 mM DTT, 2 mM MgCl2, 2 mM ATP), 1 h, 436 000 x g for 120 min at 23°C; bulk critical concentration = x-intercept of the linear fit of pellet against total concentration.

For series [2], the target named is SpeMreB5 T160A (Spiroplasma eriocheiris). The description is as above.
Series [3] deals with SpeMreB5 T160K (Spiroplasma eriocheiris). The description is as above.
The target in series [4] is Spiroplasma eriocheiris MreB3 wild-type (Spiroplasma eriocheiris). The series is described as above.
In series [5] the target is Spiroplasma eriocheiris MreB5 wild-type (Spiroplasma eriocheiris). The series is described as above.
Series [6] shares this target. Briefly: sedimentation assay (ultracentrifugation of polymers, SDS-PAGE of pellet and supernatant); buffer S with Mg-AMPPNP instead of Mg-ATP; bulk critical concentration = x-intercept of the linear fit.
For series [7] the target is unchanged. Briefly: sedimentation assay (ultracentrifugation of polymers, SDS-PAGE of pellet and supernatant); buffer S with Mg-ADP instead of Mg-ATP; bulk critical concentration = x-intercept of the linear fit.
Series [8] concerns the molecule itself. Briefly: negative-staining electron microscopy; polymerized 3 h at room temperature in standard buffer (20 mM Tris-HCl pH 7.5, 100 mM KCl, 5 mM DTT) with 2 mM MgCl2 and 2 mM ATP; 10 µM SpeMreB3, 5 µM SpeMreB5, diluted to 3 µM before the grid.
Series [9] concerns the molecule itself. Briefly: sedimentation assay (ultracentrifugation of polymers, SDS-PAGE of pellet and supernatant); buffer S (20 mM Tris-HCl pH 8.0, 1 M NaCl, 200 mM L-arginine-HCl pH 8.0, 5 mM DTT, 2 mM MgCl2, 2 mM ATP), 1 h, 436 000 x g for 120 min at 23°C; bulk critical concentration = x-intercept of the linear fit of pellet against total concentration.

For `Nc1ncnc2c1ncn2[C@@H]1O[C@H](COP(=O)(O)OP(=O)(O)OP(=O)(O)O)[C@@H](O)[C@H]1O` [ATP], the “Pi release assay (MESG coupled, A360)” value on SpeMreB5 was “SpeMreB5 hydrolysed ATP and released Pi over time”. Molecule “SpeMreB5 D162S (from UniProt A0A0H3XIQ3 1-350) (natural protein)” had a critical concentration (CC) in series [1] of 0.07 µM.

In turn, “SpeMreB5 T160A (from UniProt A0A0H3XIQ3 1-350) (natural protein)” showed a critical concentration (CC) in [2] of 0.15 µM. In series [3], “SpeMreB5 T160K (from UniProt A0A0H3XIQ3 1-350) (natural protein)” yielded a critical concentration (CC) of 0 µM. In the case of “Spiroplasma eriocheiris MreB3 wild-type (from UniProt A0A0H3XJK5 1-352) (natural protein)”, the critical concentration (CC) in series [4] worked out at 2.8 µM. Take “Spiroplasma eriocheiris MreB5 wild-type (from UniProt A0A0H3XIQ3 1-350) (natural protein)”: the critical concentration (CC) worked out at 0.14 µM in series [5], 0.29 µM in series [6] and 0.39 µM in series [7].

B1: SpeMreB3 S176D (natural protein)
chain: MTITDVLKNTFNISPKPPRKFIAIDLGTTNSIAYIGGRGIIYNEASVMAYETGTKKLVALGEDARKLIGKTHDKIEIYTPLRNGAITDLRIAEEFIQHIGNRAKVQDVWKGSIVLIACPKSVTELERRAMVEMCKHLGADLVQVEEDTLMAALGAGANIFAPKGTFILDIGGGKTDAGIISAGGIVVSKSIKIAGNYIDEEILKYIRAKHTISIGVVTAEQIKKQIGSLYKGKETKKMVIFGRDVVTGMPKETEILDSEIRKLLISIFSSITQLVTDILESTPAELAGDAVMNGLLVSGGCAQISGLKEFLESYFQIPVKIAKNPQTAVIDGCIAYEKEIRDRLIEENKKNK
For B1, in series [8], the binding result is listed as “binds”.

B2: SpeMreB3 K174T/S176D (natural protein)
chain: B1 chain with K174T
On to B2, for which the “critical concentration (CC)” value in series [9] is 2.15 µM.

B3: SpeMreB3 K174T (natural protein)
chain: B1 chain with K174T, D176S
As for B3, the “critical concentration (CC)” value in [9] was 2.2 µM.

B4: SpeMreB3 D147E (natural protein)
chain: B1 chain with D147E, D176S
Consider B4, for which the “critical concentration (CC)” value in series [9] was determined as 1.26 µM.
